Test system: MS2 coat protein
Assay: apparent KD of MS2 coat protein; designed switch direction (-1 OFF switch, 1 ON switch): -1; higher = weaker reporter binding
Outline: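 SNAP-549-labelled MS2 coat protein was titrated, doubling from 0.7 or 1.5 nM to 3 µM, over designed RNA switches transcribed on Illumina chips by stalled E. coli RNA polymerase. Runs were done without input, with 200 uM small-molecule ligand, or with an oligonucleotide input. Apparent KD is the per-design median over clusters of curve-fitted normalised fluorescence.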

[1] = input ligand: microRNA oligo, concentration not stated
[2] = Eterna round: R95, input ligand: FMN 200 uM
[3] = Eterna round: R95, input ligand: microRNA oligo, concentration not stated
[4] = Eterna round: R95, input ligand: none

Row | Sequence | apparent KD of MS2 coat protein (input ligand: FMN 200 uM) [nM] | apparent KD of MS2 coat protein [1] [nM] | apparent KD of MS2 coat protein (input ligand: none) [nM] | apparent KD of MS2 coat protein [2] [nM] | apparent KD of MS2 coat protein [3] [nM] | apparent KD of MS2 coat protein [4] [nM]
1 | UUAUUGUGUGUAGGAUAUGCGUGUUAUUAUUAUGCAGAAGGACAUGAGGAUCACCCAUGUGUAUUAUUAUUAUAUAUUAUAUAU [Title] (Eterna round: R96, puzzle: Exclusion NG 1) | 45.3 | 27.2 | 27.7 | – | – | –
2 | AAGAAACAUGAGGAUCACCCAUGUGAGGAUAUGGCCCGCCCGGCGUAAGCAAAAUAAAUCAGAAGGCACAAAGG [salish99_ex1_r4_008] (Eterna round: R97, puzzle: Exclusion 1) | 39.5 | – | 47.2 | – | – | –
3 | GGUUGGCGAGGAUAUACAUGAGGAUCACCCAUGUGAGAAAAAAAAGUGAGGAAGAAAAGUAGAAGGCGCUGACG [salish99_ex3_r3_015] (puzzle: Exclusion 3) | – | – | – | 67.7 | 37.7 | 35.6
4 | GUAUGUUCCUGAGGAUAUCGAGCCAUCGACCGCCGAGAAGGCAGAGACAUGAGGAUCACCCAUGUGAAGUAAUGGCGAUGAGAA [Eternabot solution 13] (Eterna round: R96, puzzle: Exclusion NG 1) | 15.4 | 10.8 | 17 | – | – | –
5 | CAAAAGCUAGGAUAUCGCAAACAAGACAUGAGGAUCACCCAUGUGUCCAUGGCCGACCUCCGAGAAGGAGCAAUAU [Dieded] (puzzle: Exclusion 5) | – | – | – | 32.5 | 27.9 | 30.5
6 | UUAUAUAGUGUGAGGAUAUGCUGGUCCUUGGAUCAGCAGAAGGCACAUGAGGAUCACCCAUGUAGUUUAUUUUU [Mat - Exclusion 4 - JL Mod - D4] (puzzle: Brourd's mod of Exclusion 4) | – | – | – | – | 25.9 | –
7 | AUUGUUUAUGUAGGAUAUGCCUGGCGUGCCUUUGCAGAAGGACAUGAGGAUCACCCAUGUAACAUGAGGCUCACCCAUGUCGCC [salish99_ExNG1_r04_114] (Eterna round: R96, puzzle: Exclusion NG 1) | 162 | 123 | 170 | – | – | –
8 | CUUGUUUAUGUAGGAUAUGCCUGGCGUGCCUUUGCAGAAGGACAUGAGGAUCACCCAUGUAUUGCGGUCUGCGUUCAGAUCGCA [salish99_ExNG1_r4_045] (Eterna round: R96, puzzle: Exclusion NG 1) | 34.6 | 23.2 | 34.5 | – | – | –
9 | GUGAGGUAAGGAUAUAGUAGUGAAGGUAAGAUAUGAGAAUGCUAGAAGGUACAUGAGGAUCACCCAUGUUCGGG [JR_Exclu4_Sub089] (puzzle: Exclusion 4) | – | – | – | – | 173 | –
10 | CGUCAGUCAGGAUAUGCAUACGUAGACAUGAGGAUCACCCAUGUGACGUGGGACUGGUGUGUAGAAGGGACGAACA [EX5 #78] (Eterna round: R97, puzzle: Exclusion 5) | 23.1 | – | 21.3 | – | – | –
11 | CCACUUACUGAGGAUAUUGCAUCACCCGACUGAUAAGAAGGCAGAACAUGAGGAUCACCCAUGUGGGUACUCAC [Bingo-Bango-9] (Eterna round: R97, puzzle: Exclusion 6) | 207 | – | 155 | – | – | –
12 | CAAACAAAGUCAGGAUAUGUCAAAUUUGUUACGACAGAAGGGACGGGACCGACACUCACAGACAUGAGGAUCACCCAUGUAAAA [Areris] (Eterna round: R96, puzzle: Exclusion NG 1) | 37.8 | 19 | 33.5 | – | – | –
13 | AAUAAUGAGAAGGAUAUCACUAGCGAUAGCUAGUGAGAAGGUCUCACAUGAGGAUCACCCAUGUGUUCCAAUAA [Mod1 Ex6/6-A4 by Brourd] (Eterna round: R97, puzzle: Exclusion 6) | 417 | – | 221 | – | – | –
14 | AUAAUGUGAGGAUAUCGAGACUACUGCCUCGGCAGUAGUCUCGAGAAGGCACAUGAGGAUCACCCAUGUGAUCA [E4/2-A2] (Eterna round: R97, puzzle: Exclusion 4) | 79 | – | 1190 | – | – | –
15 | UCAAGUAUGUAGGAUAUGAUGUGAUUUUACAUAUCAGAAGGACGUACAUGAGGAUCACCCAUGUAACUUGCAUG [Exclusion 6 - B - 12:a] (puzzle: Exclusion 6) | – | – | – | – | 86.9 | –
16 | AGCCUGUAAUCCCUCAGACAUGAGGAUCACCCAUGUGGAUGUAAGGAUAUAGGUGCAAUUGCAAUCUAGAAGGUACGCCGUCAG [Eternabot solution 32] (Eterna round: R96, puzzle: Exclusion NG 3) | 44.8 | 23.1 | 31.4 | – | – | –

Row | Sequence | apparent KD of MS2 coat protein (input ligand: FMN 200 uM) [nM] | apparent KD of MS2 coat protein [1] [nM] | apparent KD of MS2 coat protein (input ligand: none) [nM] | apparent KD of MS2 coat protein [2] [nM] | apparent KD of MS2 coat protein [3] [nM] | apparent KD of MS2 coat protein [4] [nM]
17 | CACGUGUCAGGAUAUCCCGCGCGCGCUUCACCGAGAGUGCGGGAGAAGGGACAUGAGGAUCACCCAUGUCCUUC [Eternabot (L1) Solution 93] (Eterna round: R97, puzzle: Exclusion 4) | 12.8 | – | 16.2 | – | – | –
18 | UACAUGAGGAUCACCCAUGUUUUGUCGUGUAUGGUAUUUAUCUAGGAUAUCAAGUUAUGUAUUUAUGAGAAGGAGAAUAUUAAU [JMF's solution 31] (Eterna round: R96, puzzle: Exclusion NG 3) | 40.4 | 35.3 | 43.2 | – | – | –
19 | AAGGUACAUGAGGAUCACCCAUGUGAGGAUAUCGUUGUUGAGUCUAGAGAUACAAUGUUGAGAAGGUACGGGUA [Eternabot (L2) Solution 94] (Eterna round: R97, puzzle: Exclusion 1) | 63.1 | – | 61.2 | – | – | –
20 | UUAAAUAAUGUAGGAUAUGCAAGGCGAACCUAAGCAGAAGGACAUGAGGAUCACCCAUGUAAUGCGGUCUGCGUACAGAUCGCA [JL ENG1 1.01] (Eterna round: R96, puzzle: Exclusion NG 1) | 59.4 | 23.2 | 24.2 | – | – | –
21 | UUAUAAAGAGUGAGGAUAUGCUGGUCCUUGGAUCAGCAGAAGGCACAUGAGGAUCACCCAUGUAAAAUAAUAUU [Mat - Exclusion 4 - JL Mod - D40] (puzzle: Brourd's mod of Exclusion 4) | – | – | – | – | 25.4 | –
22 | UUUUAGUAAGGAUAUGAUUAGAUCUACGAAAGUAGAUCUAAUCAGAAGGUACAUGAGGAUCACCCAUGUAGAUU [Mod of Brourd 3 - Jieux - Exclusion 4] (Eterna round: R97, puzzle: Exclusion 4) | 24.2 | – | 18.5 | – | – | –
23 | CCCGUGUGAGGAUAUCGUUCACUUGGCGAAAGUCGAGUGGACGAGAAGGUACAUGAGGAUCACCCAUGUGCGGG [-36.1, -35.4 kcal, A 24%] (Eterna round: R97, puzzle: Exclusion 4) | 155 | – | 134 | – | – | –
24 | AAUAUUAGAGGAUAUGCACUUGCACUAACGAAAUCCUCACCACAUGAGGAUCACCCAUGUAGAAGGCUGGUGGU [Eternabot (L2) Solution 65] (Eterna round: R97, puzzle: Exclusion 2) | 354 | – | 487 | – | – | –
25 | ACCUUACAUGAGGAUCACCCAUGUCAGGAUAUCUCGGGCGGCUGGAGACCAGCCGCCCAGAGAAGGGACGAGGA [Engeisbe] (puzzle: Exclusion 1) | – | – | – | – | 12.2 | –
26 | AACAGUACAGGAUAUACAUGAGGAUCACCCAUGUGAGAAUUAAGUGGAAAACCACAAAGUAGAAGGGUACUGGA [Mat - Exclusion 3 - JL mod - D3] (Eterna round: R96, puzzle: Exclusion 3) | 209 | 23.3 | – | – | – | –
27 | GUUAUACAUGAGGAUCACCCAUGUCAGGAUAUUAUCUAUCUUUGGAAGCAUUGAUCGCUAAGAAGGGACUAGUA [Bubbles2] (Eterna round: R97, puzzle: Exclusion 1) | 28 | – | 33 | – | – | –
28 | CCUCGACAUGAGGAUCACCCAUGUGAGGAUAUCAUAUUCAGACGAAAGGUGUUAGAGUUGAGAAGGCGCAUGUU [Eternabot (L1) Solution 51] (Eterna round: R97, puzzle: Exclusion 1) | 44.1 | – | 28.3 | – | – | –
29 | CCAUAUAGGAGAGGAUAUACGCACCACUAACUAGUAGAAGGCUCACAUGAGGAUCACCCAUGUGAUUUCUCAAUAUUAUACAUC [Prohibition 73 - Jieux - Exclusion NG 1] (Eterna round: R96, puzzle: Exclusion NG 1) | 50.3 | 25.6 | 34.8 | – | – | –
30 | UUUUCGUAAGGAUAUGGUUAGAUCUACGAAAGUAGAUCUAACCAGAAGGUACAUGAGGAUCACCCAUGUUGGUA [Mod of Brourd 22 - Jieux - Exclusion 4] (Eterna round: R97, puzzle: Exclusion 4) | 79.8 | – | 29.9 | – | – | –
31 | AAGAAACGAGGAUAUACAAUUGAGUGAGAGAGGGAAGUGUGACAUGAGGAUCACCCAUGUAGAAGGCGUGAGAG [JR_Exclu2_Sub086] (puzzle: Exclusion 2) | – | – | – | 116 | 82.3 | 80.4

— the supplement of paper PMC9170038
